Measurements: article PMC8770954 (2021)
No end group written: not given here.

B4: synthetic gp41 peptide (residues 596-606) with C-terminal amidation (peptide)
chain: WGCSGKLICTT-NH2
modifications: ends and bridges not checked

Key:
Experiment in all cases: SPR
[1] = biological target: monomeric full length single chain (FLSC), a covalent dimer of gp120BaL and CD4 (HIV-1 BaL | , UniProt P01730)
7B2 = biological target: 7B2
[2] = biological target: B4
[3] = biological target: B4
[4] = biological target: T1, V2 peptide corresponding to the clade A/E 92TH023 gp120 V2 loop sequence (residues 167-184) (HIV-1 clade A/E 92TH023)
[5] = biological target: T1, V2 peptide corresponding to the clade …; remark: listed apart in the source

B1: RM JR4 IgG1 (antibody, V domains shown)
VH: EVQLVESGPGLVKPLETLSLTCAVPGGSIRRNYWSWIRQPPGKGLEWIGHSYGSGGSTNYNPSLESRVTLSVDTSKNLFSLKLTSVTAADTAVYYCARTVWYYTSGTHYFDHWGQGVLVTVSS
VL: QSVLTQPPSVSAAPGQKVTISCSGSSSNIGRSYVSWYQQVPGAAPKLLIYDTNKRPSGVSDRFSGSKSGSSASLAITGLQTGDEADYYCGAWDGSLNVHIFGSGTKLTVL
[1]
  Kd: 0.85 nM
  koff: 0.00013 s⁻¹

B2: DH677.3 (human IgG1) (antibody, V domains shown)
VH: QVQLVQSGAEVQKPGASVKVSCKASGYTFASYDINWVRQATGQGLEWMGWMNPKTGNTGYAQKFQGRVTLTRNTSISTAYMELTSLRSEDTAVYYCATYRIIAAVGYRYFQYWGQGTLVTVSS
VL: DIQLTQSPSSLSASVGDSVTITCRASQGFGNYLAWYQQRPGKVPEVLIYAATTLQSGVPSRFSGSGSGTDFTLTISSLQPEDVATYYCQKYNSAPFTFGQGTRLEIK
[1]
  Kd: 0.29 nM
  koff: 4.05e-05 s⁻¹

B3: RhDH677.3 IgG1 (antibody, V domains shown)
VH: QVQLVQSGAEVKKPGASVKLSCKASGYTFTSYDINWVRQAPGQGLEWMGWMNPKTGNTGYAQKFQGRVTMTRDTSTSTAYMELSSLRSEDTAVYYCATYRIIAAVGYRYFQYWGQGALVTVSS
VL: AIQMTQSPSSLSASVGDKVTITCRASQGFGNYLAWYQQKPGKVPKLLIYAATTLQSEVPSRFSGSGSGTDFTLTISSLQPEDVATYYCQKYNSAPFTFGQGTRLEIK
[1]
  Kd: 2.54 nM
  koff: 0.000189 s⁻¹

## B4
7B2
  Kd: 634 nM
  koff: 0.000654 s⁻¹

B5: Rh7B2 IgG1 (antibody, V domains shown)
VH: EVQLVESGGGLVQPGGSLRLSCAASGFTFTEYYMSWVRQAPGKGLEWVSYISKNGEYSYYADSVKGRFTISRDNAKNSLSLQMSSLRAEDTAVYYCTRADGLTYFSELLQYIFDLWGQGVLVTVSS
VL: DIVMTQSPDSLAVSLGERVTINCKSSQTLLYSSNNRHSIAWYQQKPGQAPKLLIYWASMRLSGVPNRFSGSGSGTDFTLTISGLQAEDVAVYYCHQYSSHPPTFGQGTKVEIK
[2]
  Kd: 583 nM
[3]
  koff: 0.000534 s⁻¹

B6: DH827 (human IgG1) (antibody, V domains shown)
VH: EVQLVESGGGVVQPGRSLRLSCAASGFTFSNCAMHWVRQAPGKGLEWVAVISYHGSNKYYADYVKGRFTISRDNSKSTVYLQMNSPRAEDTAVYYCAKEGGAPSGWALDYWGQGTLVTVSS
VL: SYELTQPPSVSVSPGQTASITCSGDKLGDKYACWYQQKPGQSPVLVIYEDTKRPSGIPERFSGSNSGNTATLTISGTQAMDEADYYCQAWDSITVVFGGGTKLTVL
[4]
  Kd: 3800 nM
[5]
  koff: 0.0069 s⁻¹

B7: RhDH827 IgG1 (antibody, V domains shown)
VH: EVQLVESGGGLVQPGGSLRLSCAASGFTFSNCAMHWVRQAPGKGLEWVAVISYHGSNKYYADYVKGRFTISRDNSKNMLYLQMNNLKLEDTAVYYCAREGGAPSGWALDYWGQGVLVTVSS
VL: SYELTQSPSVSVSPGQPASITCSGDKLGDKYACWYQQKPGQVPVLVIYEDTKRPSGIPERFSGSNSGNTATLTISGVEAGDEADYYCQAWDSITHVVFGGGTRLTVL
[4]
  Kd: 2730 nM
[5]
  koff: 0.000486 s⁻¹
